Test results reported in the RNAGym collection of RNA variant scans (doi:10.1021/acssynbio.7b00057).

B1: Pistol ribozyme (parent)
chain: GGGUCGUUGUUCCAUAAUCGCGUGGAUAUGGCACGCAAGUUUCUACCGGGCACCGUAAAUGUCCGACUGGAGCCGUUCGGGCGGCUAUAAACAGACCUCAGGCCCGAAGCGUGGCGGCACCUGCCGCCGGUGGUAAAAAAGAUCGGAAGAGCACACGUCU

Variants of: B1
Experiment: aptazyme ON/OFF ratio, guanine; higher = stronger switching; co-transcriptional cleavage with and without guanine

Compared with U8A G9A C12U C13G, U8A G9A C12U C13U is lower in “aptazyme ON/OFF ratio” value: 1.17 for the first, 1.11 for the second.

First: U8A G9A U10A C12U C13G
Second: U8A G9A U10A C12U C13A
The “aptazyme ON/OFF ratio” value of the first is higher: 1.24 for the first, 1.2 for the second.

Going from U8A G9A U10A C12U C13U to U8A G9A U10A U11A C12U C13U, the “aptazyme ON/OFF ratio” value falls from 1.33 to 1.21.

Going from U8A G9A U10A U11A C12U C13G to U8A G9A U10A U11A C12U C13A, the “aptazyme ON/OFF ratio” value rises from 1.1 to 1.37.

First: U8A G9A U10C C13A
Second: U8A G9A U10C C13U
The “aptazyme ON/OFF ratio” value of the first is lower: 1.06 for the first, 1.11 for the second.

Compared with U8A G9A U10C C13G, U8A G9A U11A C12A C13A is higher in “aptazyme ON/OFF ratio” value: 1.04 for the first, 1.3 for the second.

Compared with U8A G9A U11A C12A C13U, U8A G9A U11A C12A C13G is lower in “aptazyme ON/OFF ratio” value: 1.35 for the first, 1.25 for the second.

Going from U8A G9A U10G U11G C12U C13U to U8A G9A U10G U11G C12U C13G, the “aptazyme ON/OFF ratio” value rises from 1.2 to 1.26.

First: U8A G9A U10G U11G C12U C13A
Second: U7G U11C C12G C13U
The “aptazyme ON/OFF ratio” value of the first is higher: 1.36 for the first, 1.14 for the second.

First: U7G U11C C12G C13A
Second: U7G U11C C12G C13G
The “aptazyme ON/OFF ratio” value of the first is higher: 1.2 for the first, 1.09 for the second.

Going from U8A G9A U11C to U8A G9A U11A, the “aptazyme ON/OFF ratio” value rises from 1.05 to 1.39.

First: U8A G9A U10C U11C
Second: U8A G9A U10C U11A
The “aptazyme ON/OFF ratio” value of the first is lower: 1.04 for the first, 1.33 for the second.

First: U8A G9A U10C U11G
Second: U8A C12U
The “aptazyme ON/OFF ratio” value of the first is lower: 1.33 for the first, 1.62 for the second.

Going from U8A C12G to U8A C12A, the “aptazyme ON/OFF ratio” value falls from 1.46 to 1.3.

Going from U7G U11A C12G C13U to U7G U11A C12G C13G, the “aptazyme ON/OFF ratio” value falls from 1.12 to 1.11.

First: U7G U11A C12G C13A
Second: U8A G9A U10G C12G
The “aptazyme ON/OFF ratio” value of the first is lower: 1.08 for the first, 1.16 for the second.

Compared with U8A G9A U10G C12A, U8A G9A U10G C12U is higher in “aptazyme ON/OFF ratio” value: 1.2 for the first, 1.5 for the second.

Going from U8A G9A U10G U11C C12U C13G to U8A G9A U10G U11C C12U C13U, the “aptazyme ON/OFF ratio” value falls from 1.16 to 1.15.

First: U8A G9A U10G U11C C12U C13A
Second: U7G U10G U11G C12G
The “aptazyme ON/OFF ratio” value of the first is higher: 1.21 for the first, 1.15 for the second.

Going from U7G U10G U11G C12A to U7G U10G U11G C12U, the “aptazyme ON/OFF ratio” value rises from 1.08 to 1.24.

Compared with U8A G9A U10C U11A C12A C13G, U8A G9A U10C U11A C12A C13A is lower in “aptazyme ON/OFF ratio” value: 1.24 for the first, 1.16 for the second.

First: U8A G9A U10C U11A C12A C13U
Second: U7G U11C C13G
The “aptazyme ON/OFF ratio” value of the first is higher: 1.17 for the first, 1.08 for the second.

First: U7G U11C C13A
Second: U7G U11C C13U
The “aptazyme ON/OFF ratio” value of the first is lower: 1.03 for the first, 1.07 for the second.

First: U8A G9A U11C C12G C13U
Second: U8A G9A U11C C12G C13G
The “aptazyme ON/OFF ratio” value of the first is higher: 1.22 for the first, 1.15 for the second.

Going from U8A G9A U11C C12G C13A to U8A G9A U10G U11C C12G C13U, the “aptazyme ON/OFF ratio” value rises from 1.15 to 1.18.

First: U8A G9A U10G U11C C12G C13G
Second: U8A G9A U10G U11C C12G C13A
The “aptazyme ON/OFF ratio” value of the first is lower: 1.14 for the first, 1.16 for the second.

Going from U8A G9A U10A U11G C12G C13U to U8A G9A U10A U11G C12G C13G, the “aptazyme ON/OFF ratio” value rises from 1.29 to 1.4.

Compared with U8A G9A U10A U11G C12G C13A, U8A G9A C13U is higher in “aptazyme ON/OFF ratio” value: 1.21 for the first, 1.23 for the second.

First: U8A G9A C13G
Second: U8A G9A C13A
The “aptazyme ON/OFF ratio” value of the first is lower: 1.12 for the first, 1.19 for the second.

Going from U8A G9A U10C U11A C12G to U8A G9A U10C U11A C12U, the “aptazyme ON/OFF ratio” value falls from 1.26 to 1.19.

Going from U8A G9A U10C U11A C12A to U8A G9A U10C U11G C12G, the “aptazyme ON/OFF ratio” value rises from 1.31 to 1.38.

Going from U8A G9A U10C U11G C12U to U8A G9A U10C U11G C12A, the “aptazyme ON/OFF ratio” value falls from 1.26 to 1.03.

First: U8A G9A U10G U11A C12G C13G
Second: U8A G9A U10G U11A C12G C13U
The “aptazyme ON/OFF ratio” value of the first is higher: 1.19 for the first, 1.12 for the second.

Going from U8A G9A U10G U11A C12G C13A to U8A G9A U10G C12A C13A, the “aptazyme ON/OFF ratio” value rises from 1.24 to 1.42.

First: U8A G9A U10G C12A C13G
Second: U8A G9A U10G C12A C13U
The “aptazyme ON/OFF ratio” value of the first is lower: 1.15 for the first, 1.36 for the second.

First: U8A G9A U10G U11A C12U C13G
Second: U8A G9A U10G U11A C12U C13U
The “aptazyme ON/OFF ratio” value of the first is higher: 1.07 for the first, 0.98 for the second.

Going from U8A G9A U10G U11A C12U C13A to U7G U11G C12A C13G, the “aptazyme ON/OFF ratio” value falls from 1.12 to 1.11.

Compared with U7G U11G C12A C13A, U7G U11G C12A C13U is higher in “aptazyme ON/OFF ratio” value: 1.13 for the first, 1.14 for the second.

Compared with U8A G9A U10A U11G, U8A G9A U10A U11A is higher in “aptazyme ON/OFF ratio” value: 1.34 for the first, 1.35 for the second.

First: U8A G9A U10A U11C
Second: U8A G9A U10A U11A C12U
The “aptazyme ON/OFF ratio” value of the first is lower: 1.05 for the first, 1.13 for the second.

U8A G9A U10A U11A C12G and U8A G9A U10A U11A C12A are the same in “aptazyme ON/OFF ratio” value: 1.24 for the first, 1.24 for the second.

Going from U8A G9A U10A U11C C12G C13A to U8A G9A U10A U11C C12G C13G, the “aptazyme ON/OFF ratio” value rises from 1.16 to 1.21.
